The text below walks through data of patent US20240133870A1, “COMBINED TREATMENT FOR CANCER” (Yeda Research and Development Co. Ltd., priority 2021, published 2024).

Common to all, as to assay type: cell-based, human
Experiment [1] deals with GFP-labeled cancer cell lines. The experiment is described as follows: Effect of secreted factors on proliferation under DMSO (pScore). The conditions noted are these: DMSO control experiments. From the text: FIGS. 8A-D show schematic overviews of rScore and bScore calculation. Calculation of rScore and bScore is derived from the data points A, B, C, D marked on GFP-level curves of cells under different treatment conditions, as shown in FIGS. 8A-B. As all cells used in the screen are constitutively expressing GFP, GFP level was used as a proxy for the number of cells. […] Proliferation score (pScore) describes the percent of change in the number of cells after seven days of treatment with a given factor. Rescue score (rScore) quantifies the effect of a given factor on the resistance to a given drug. Relative rescue describes the proportion of cells treated with drug+factor out of untreated cells. The higher this ratio, the stronger effect the factor has on drug resistance. Residual drug growth describes the proportion of cells growth under drug relative to no treatment condition. […] Finally, the rescue score (rScore) is the relative rescue after adding a penalty for drugs with low efficacy. […] Bliss Score (bScore) quantifies the extent of synergism between a given factor and a given drug. Factor effect describes the proportion (or probability) of cells killed by the factor. Drug effect describes the proportion (or probability) of cells killed by the drug. The observed killing effect (observed effect) describes the proportion (or probability) of cells killed by both factor and drug. Assuming drug killing and factor killing are independent events, the expected killing effect (expected effect) is the sum of probabilities D and F excluding events intersection (D*F), which represents a subpopulation of cells that may be sensitive to both the drug and factor. Finally, bliss score (bScore) is the delta between observed and expected killing multiplied by −1 to symbolize the expected decrease in the number of cancer cells following the addition of a factor. […] Upper panel—effect on cells proliferation. […] The number of experiments (out of 79) with pro-proliferative effect (pScore>30%) and anti-proliferative effect (pScore<−30%) were counted for each factor in the secretome library. […]

Experiment [2] has as its system BRAF (V600E) colorectal cancer cell lines. The experiment is described as follows: High-throughput secretome screen of GFP-labeled cells (rScore). The conditions noted are these: colorectal cell lines bearing BRAF (V600E); BRAF/MEK inhibitors. As for the experimental part: (§1) Cell lines—All cell lines (Table 1 hereinbelow) were cultured in DMEM supplemented with 100 units/ml Penicillin and Streptomycin, 2 μmM Glutamine, 1 μmM Pyruvate and 10% FCS, and maintained in a humidified incubator at 37° C. and 5% CO2. Cells were routinely tested for Mycoplasma contamination by PCR. To generate stable cell lines constitutively expressing GFP, cells were infected with lentivirus bearing plasmid pLEX_TRC206 and sorted by FACS to enrich for GFP positive population. For the in-vitro experiments, human cancer cell lines which constitutively expressed GFP were treated with various cytotoxic and targeted drugs (see Table 1 hereinbelow); and the effect of different secreted factors (Table 2 hereinbelow) on the innate resistance to a drug based on the cells' GFP level was determined.
(§2) High throughput in-vitro screens—For high-throughput screens or drug dose curves, cells were counted by Vi-Cell XR (Beckman coulter). Cells were seeded on 384 wells plates (Corning, 3712) using the EL406 washer dispenser (BioTek). Liquid handling of medium and drugs was effected by CyBi (WellFlex vario, CyBio). GFP fluorescence of cells was measured at 477/517 nm (excitation/emission) using Cytation3 (BioTek). Due to fluorescence reading bias at plate margins and corners, these margins were discarded for analysis.
High-throughput secretome screens—To screen for the effect of secreted factors on the response of cell lines to different drugs, the following seven-days procedure was performed. On day 0, GFP expressing cells were seeded at 1500-2000 cells per well on 384-wells plates (Corning, 3712), depending on the cell line's proliferation rate. Each plate was seeded with one cell line. […] Cell fluorescence was read at days 1, 4 and 7 by Cytation3, and for some of the experiments at day 6 as well. […]
(2) Based on observations, the plate area spanning rows 4-13 and columns 4-21 was hardly affected by plate margins biases. […] Next, to capture row and column (col) biases for the i-th row and the j-th column, the bias factor was calculated: […]

Experiment [3] has as its system pERK in G361 cell line. The experiment in a line: In-cell western blot of pERK. The conditions noted are these: G361 cells treated with the BRAF inhibitor (vemurafenib 2 μM and trametinib 1 nM). As for the experimental part:
PLX4720—BRAFi, 2 μM; PD184352—MEKi, 1 μM, EMAPII—50 ng/ml. P-value of the difference between GFP(drug)/GFP(no-treatment) and GFP(drug+EMAPII)/GFP(no-treatment), at day 7, was calculated by two-sided t-test. ** p<0.01, *** p<0.001. Average rScore (+/−SE) was calculated from at least four different experiments. […] A total of 69 experiments are shown. […] The effect of FGF2 (10 ng/ml), EMAPII (10 ng/ml) or AIMP1 (10 ng/ml) on G361 μmelanoma cells treated with vemurafenib (2 μM) was measured with or without the FGFR inhibitor PD17307 (0.5 μM). Data represent an average of 4 to 8 experiments. P-value was calculated by two-sided t-test. *** p<0.001. Error bars represent standard error. […] P-values were calculated by two-sided t-test relative to luciferase. * p<0.05, Q-value=0.1. […] P-value was calculated by two-sided t-test. *** p<0.001.
In-cell western blot—To validate that EMAPII mediates its effect on resistance to BRAF inhibition via the FGF receptors (FIG. 2G), the melanoma BRAF mutated cell line G361 was seeded in a 384-wells plate at a concentration of 16,000 cells per well. […] Finally, the plate was scanned with Odyssey (Li-cor) using microplate settings (169 μm, […]), and fluorescence intensity was quantified and normalized to the DRAQ level, and then to no drug control (DMSO).

The subject of experiment [4] is BRAF (V600E) melanoma cell lines. The experiment in a line: High-throughput secretome screen of GFP-labeled cells (rScore, bScore, ranks). The conditions noted are these: melanoma cell lines bearing BRAF (V600E); BRAF/MEK inhibitors. The protocol:
as §1, §2
High-throughput secretome screens—To screen for the effect of secreted factors on the response of cell lines to different drugs, the following seven-days procedure was performed. On day 0, GFP expressing cells were seeded at 1500-2000 cells per well on 384-wells plates (Corning, 3712), depending on the cell line's proliferation rate. Each plate was seeded with one cell line. At day 1, each plate was treated with the secretome library (Table 2 hereinabove), one well per factor. Immediately afterwards, each plate was treated either with a drug (Table 1 hereinabove) at the EC90 concentration or with DMSO control. The CyBi liquid handler was used to treat each plate with a drug and the secretome library as well as to replace the medium, drug and secreted factors following 3 days of incubation (day 4). Cell fluorescence was read at days 1, 4 and 7 by Cytation3, and for some of the experiments at day 6 as well. Wells of interest were imaged at day 7 using the Operetta (PerkinElmer).
(2) Based on observations, the plate area spanning rows 4-13 and columns 4-21 was hardly affected by plate margins biases. This area is referred to herein as plate core. To control for row specific and column specific biases, plate outliers (Zscore>4 or Zscore<−4) and edges were masked. Next, to capture row and column (col) biases for the i-th row and the j-th column, the bias factor was calculated:
Upon QC completion, 199 experiment plates and 79 control (DMSO) plates were left for further analysis. • 4—Scoring methods-A GFP value for wells without secretome factors was obtained by averaging over the plate internal control wells. Those wells contained the solvents used in the secretome library. pScore: The effect of the secreted factors on proliferation under DMSO was evaluated using pScore (proliferation score). Values were given in percent units.
rScore: The effect of the secreted factors on resistance to anti-cancer drugs was evaluated using rScore (rescue score). rScore was assigned to a given factor under two conditions: • 1. drug effect was >30% (residual drug growth<0.7) • 2. proliferation ratio between factor treated and untreated cells in the presence of drug was higher than one:
rSscore=S−S*residual drug growth
Based on manual inspection of the rScore distribution across the data, the threshold for a potential effect on drug resistance was set to 0.2 (FIGS. 8A-D).
(*) Negative values were considered as zero. […] Groups with less than 4 experiments were discarded, finally resulting in 13 groups of experiments (FIG. 1E). […]

In the case of “insulin: pro-proliferative secreted factor”, the “effect on proliferation (pScore)” value in experiment [1] is “pro-proliferative”.
Consider neuregulin-1, for which the “effect on proliferation (pScore)” value in experiment [1] is on record as “pro-proliferative”.

B1: BTC: EGFR ligand beta-cellulin (protein, UniProt P35070 32-111, looked up)
Betacellulin: DGNSTRSPETNGLLCGDPEENCAATTTQSKRKGHFSRCPKQYKHYCIKGRCRFVVAEQTPSCVCDEGYIGARCERVDLFY
Consider B1, for which the “effect on drug resistance” value in experiment [2] is listed as “mediate resistance only to the colorectal cell lines”.

B2: interferon gamma: anti-proliferative secreted factor (protein, UniProt P01579 24-161, looked up)
Interferon gamma: QDPYVKEAENLKKYFNAGHSDVADNGTLFLGILKNWKEESDRKIMQSQIVSFYFKLFKNFKDDQSIQKSVETIKEDMNVKFFNSNKKKRDDFEKLTNYSVTDLNVQRKAIHELIQVMAELSPAAKTGKRKRSQMLFRG
In the case of B2, the “effect on proliferation (pScore)” value in experiment [1] is on record as “anti-proliferative”.

B3: AIMP1: aminoacyl tRNA synthetase complex interacting multifunctional protein 1 (protein, UniProt Q12904 2-312, looked up)
Aminoacyl tRNA synthase …: ANNDAVLKRLEQKGAEADQIIEYLKQQVSLLKEKAILQATLREEKKLRVENAKLKKEIEELKQELIQAEIQNGVKQIPFPSGTPLHANSMVSENVIQSTAVTTVSSGTKEQIKGGTGDEKKAKEKIEKKGEKKEKKQQSIAGSADSKPIDVSRLDLRIGCIITARKHPDADSLYVEEVDVGEIAPRTVVSGLVNHVPLEQMQNRMVILLCNLKPAKMRGVLSQAMVMCASSPEKIEILAPPNGSVPGDRITFDAFPGEPDKELNPKKKIWEQIQPDLHTNDECVATYKGVPFEVKGKGVCRAQTMSNSGIK
Regarding B3, the pERK reactivation result in experiment [3] is “partially reactivate pERK”.

B4: FGF10: fibroblast growth factor 10, ligand of FGFR2IIIb (protein, UniProt O15520 38-208, looked up)
Fibroblast growth factor 10: QALGQDMVSPEATNSSSSSFSSPSSAGRHVRSYNHLQGDVRWRKLFSFTKYFLKIEKNGKVSGTKKENCPYSILEITSVEIGVVAVKAINSNYYLAMNKKGKLYGSKEFNNDCKLKERIEENGYNTYASFNWQHNGRQMYVALNGKGAPRRGQKTRRKNTSAHFLPMVVHS
B4: the “effect on drug resistance” value in experiment [4] was “much smaller effect on melanoma cell lines”; in experiment [2], “could confer drug resistance to colorectal cancers”.

B5: FGF7: fibroblast growth factor 7, ligand of FGFR2IIIb (protein, UniProt P21781 32-194, looked up)
Fibroblast growth factor 7: CNDMTPEQMATNVNCSSPERHTRSYDYMEGGDIRVRRLFCRTQWYLRIDKRGKVKGTQEMKNNYNIMEIRTVAVGIVAIKGVESEFYLAMNKEGKLYAKKECNEDCNFKELILENHYNTYASAKWTHNGGEMFVALNQKGIPVRGKKTKKEQKTAHFLPMAIT
Turning to B5, the “effect on drug resistance” value in experiment [4] is “much smaller effect on melanoma cell lines”; in experiment [2], “could confer drug resistance to colorectal cancers”.
